Source: patent US20220194999A1 (Janssen / Centocor, published 2022)

Target: T1, HLA-A*02:01 class I complex (conditional p*HLA*02:01, biotinylated heavy chain with beta2-microglobulin) (human, biotinylated heavy chain)
T1 construct: UV-labile peptide p* is cleaved and exchanged for the test peptide; also called HLA 2.1
Assay: UV peptide exchange, HLA class I ELISA, % of Pos peptide;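 further: Streptavidin-captured HLA complexes after exchange detected via HRP anti-human B2M antibody, absorbance read, colour scales with intact complex, normalized to exchange control peptide as 100%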
Excerpt: The HLA class I ELISA is an enzyme immunoassay based on the detection of beta2-microglobulin (B2M) of (peptide-stabilized) HLA class I complexes. To this end streptavidin is bound onto polystyrene microtiter wells. After washing and blocking, HLA complex present in exchange reaction mixtures or ELISA controls is captured by the streptavidin on the microtiter plate via its biotinylated heavy chain. Non-bound material is removed by washing. Subsequently, horseradish peroxidase (HRP)-conjugated antibody to human B2M is added. […] In the latter case B2M is removed during the washing step. After removal of non-bound HRP conjugate by washing, a substrate solution is added to the wells. A colored product is formed in proportion to the amount of intact HLA complex present in the samples. After the reaction has been terminated by the addition of a stop solution, absorbance is measured in a microtiter plate reader. The absorbance is normalized to the absorbance of an exchange control peptide (represents 100%). Also, suboptimal HLA binding of peptides with a moderate to low affinity for HLA class I molecules can be detected by this ELISA technique
Coating wells of two NUNC MaxiSorp™ 96-well ELISA plates: only the contents of one coating buffer capsule were dissolved in 100 mL of distilled water (0.05 M carbonate-bicarbonate buffer, pH 9.6 at 25° C.). 46 μL of Streptavidin stock solution were added to 23 mL coating buffer. 100 μL of the Streptavidin stock solution were added to all wells. Each microtiter plate was covered with an adhesive seal and incubated overnight at room temperature (18-25° C.).

Binder | Average % | Exch I (%) | Exch II (%)
SLTCTYFPV (also called M212) [TP53_S127F6 mimic peptide SLTCTYFPV] | 95.5% | 93.7% | 97.2%
SLTCTYFPL (also called M214) [TP53_S127F8 mimic peptide SLTCTYFPL] | 70.8% | 69.9% | 71.6%
